{"source": "paper PMC10615762", "target": "Fusion protein of Nipah virus (F-clamp) (Nipah virus)", "test": "SEC", "data": [{"substance": "Fusion protein of Nipah virus (F-clamp)", "values": [{"measurement": "stoichiometry N", "value": 3}]}]}
